Where a SMILES comes first, the peptide text is derived from it. Bridges are numbered along the chain shown (N, C = ends). [ ]: non-standard residue; d: D form. The star is where a group is joined. ξ: configuration not given here. X1 = CC[C@@]1(OC(=O)OCCSSC[C@H](NC(C)=O)C(=O)*)C(=O)OCc2c1cc1n(c2=O)Cc2cc3ccccc3nc2-1; S(CH2)2OCO2(CPT-20-yl) = CC[C@@]1(OC(=O)OCCS*)C(=O)OCc2c1cc1n(c2=O)Cc2cc3ccccc3nc2-1; ξR = N=C(N)NCCCC(N)C(=O)O
Tests used:
GL-261 tumor spheroids = assay: Inhibition of tumor spheroids; format: cell-based; conditions: CPT concentration of 5 μM
Experimental: GL-261 cells were seeded at a density of 1×10^4 cells/well into agarose coated 48-well plates. After the culture plates were incubated at 37° C. for 7 days, the spheroids were treated with free CPT, NT and P-NT at the CPT concentration of 5 μM. The tumor spheroids were photographed every two days. Growth inhibition was evaluated by measuring the size of the tumor spheroids. Volume of the tumor spheroids was calculated using the equation […], with dmax dmin representing the maximum and minimum diameter of the spheroid, respectively.

GL-261 tumors = assay: Tumor tissue penetration, fluorescence imaging of tumor sections (NT vs NT-Sham); format: in vivo, GL-261 tumor-bearing mice; conditions: day 3 after intratumoral injection
From the text: FIG. 39 is fluorescence imaging of tumor sections to specifically analyze the information from tumor areas of GL-261 tumor-bearing mice that intratumoral injected with NT-Sham (NTs formed from diCPT-iRGRD) or NT. The images were obtained on day 3 day after treatment. Blue: CPT (Excitation at 365 nm), Red: DRAQS™ stained nuclei, scale bar: 500 μm.

[1] = In vivo hydrogel formation and degradation after subcutaneous injection; set-up: species or system C57BL/6 mice; conditions: within 45 days
Experimental: 100 μl of 7.2 mM P-NT solution or diCPT-iRGD NT solution (5.75 mM, 100 μL) was injected into the back of C57BL/6 mice. The mice were then sacrificed at predetermined time points (1 hour, 5, 15, 30 and 45 days). The remaining hydrogel in each mouse was photographed and the amount of drug that persisted within the hydrogel was determined using HPLC.

[2] = GSH responsive drug release of CPT prodrugs; format: in vitro ADME; conditions: presence of GSH, within 2 hours
Experimental: Briefly, 20 mM glutathione (GSH) and 400 μM diCPT-PLGLAG-iRGD or diCPT-iRGD stock solutions were prepared in water or PBS (pH 7.4). Equal volumes of GSH and diCPT-PLGLAG-iRGD or diCPT-iRGD solutions were then mixed to reach a final GSH concentration of 10 mM and the mixtures were incubated at 37° C. Samples were then taken at predetermined time points (0, 0.5, 1, 2, 4, 8, 12 and 24 h) and quantified using HPLC.

GL-261 cells = assay: Cytotoxicity assay (MTT or WST-1); format: cell-based; conditions: 48 h incubation
Experimental: GL-261 cells (2.5×10^3 cells/well) were incubated in a 96-well plate overnight. The cells were then treated with varying concentrations of CPT or diCPT-PLGLAG-iRGD or diCPT-iRGD solutions, with untreated cells used as a control. After 48 h incubation, cell viability was tested using an MTT or WST-1 assay. The percentage of cell viability was calculated as follows: Cell Viability (%)=A570sample/A570control×100%. IC50 values of the drug formulations were analyzed using Graph Pad Prism 5.

[3] = Intratumoral retention of Cy7-labeled CDA (IVIS); format: in vivo, GL-261 tumor-bearing mice; conditions: intratumoral injection
Experimental: At predetermined time points, fluorescence images were recorded by an IVIS Spectrum imaging system (Perkin Elmer).

In the case of CC[C@@]1(OC(=O)OCCSSC[C@H](NC(C)=O)C(=O)NCCCC[C@H](NC(=O)[C@H](CSSCCOC(=O)O[C@]2(CC)C(=O)OCc3c2cc2n(c3=O)Cc3cc4ccccc4nc3-2)NC(C)=O)C(=O)N[C@H]2CSSC[C@@H](C(N)=O)NC(=O)[C@H](CC(=O)O)NC(=O)[C@@H]3CCCN3C(=O)CNC(=O)C(CCCNC(=N)N)NC(=O)[C@H](CC(=O)O)NC(=O)CNC(=O)[C@H](CCCNC(=N)N)NC2=O)C(=O)OCc2c1cc1n(c2=O)Cc2cc3ccccc3nc2-1 (stereo partly shown) [diCPT-iRGD] (Ac-C(S(CH2)2OCO2(CPT-20-yl))K(X1)CRGD[ξR]GPDC-NH2; disulfide 3-11), the “cytotoxicity against 3D tumor spheroids” value (GL-261 tumor spheroids) is reported as “potent cytotoxicity”, the “CPT fluorescence at the tumor periphery” value (GL-261 tumors) is reported as “distinct CPT fluorescence can be observed throughout the tumor and even at the tumor periphery” and the hydrogel degraded [1] is reported as “approximately 75%”. The “free CPT released” value [2] was ~100% and the “cytotoxicity against GL-261 brain tumor cells” value (GL-261 cells) was “potent cytotoxicity”.

With Nc1ncnc2c1ncn2[C@@H]1O[C@@H]2COP(O)(=S)O[C@@H]3C(O)[C@@H](COP(O)(=S)O[C@H]2[C@H]1O)O[C@H]3n1cnc2c(N)ncnc21 (stereo partly shown) [free CDA, 2′3′-c-di-AM(PS)2 (Rp,Rp)] the “CDA fluorescence signal in tumors” value [3] was “virtually no fluorescence signal observed five days after injection”.

B1: Human MMP2 recombinant protein (protein)
chain: APSPIIKFPGDVAPKTDKELAVQYLNTFYGCPKESCNLFVLKDTLKKMQKFFGLPQTGDLDQNTIETMRKPRCGNPDVANYNFFPRKPKWDKNQITYRIIGYTPDLDPETVDDAFARAFQVWSDVTPLRFSRIHDGEADIMINFGRWEHGDGYPFDGKDGLLAHAFAPGTGVGGDSHFDDDELWTLGEGQVVRVKYGNADGEYCKFPFLFNGKEYNSCTDTGRSDGFLWCSTTYNFEKDGKYGFCPHEALFTMGGNAEGQPCKFPFRFQGTSYDSCTTEGRTDGYRWCGTTEDYDRDKKYGFCPETAMSTVGGNSEGAPCVFPFTFLGNKYESCTSAGRSDGKMWCATTANYDDDRKWGFCPDQGYSLFLVAAHEFGHAMGLEHSQDPGALMAPIYTYTKNFRLSQDDIKGIQELYGASPDIDLGTGPTPTLGPVTPEICKQDIVFDGIAQIRGEIFFFKDRFIWRTVTPRDKPMGPLLVATFWPELPEKIDAVYEAPQEEKAVFFAGNEYWIYSASTLERGYPKPLTSLGLPPDVQRVDAAFNWSKNKKTYIFAGDKFWRYNEVKKKMDPGFPKLIADAWNAIPDNLDAVVDLQGGGHSYFFKGAYYLKLENQSLKSVKFGSIKSDWLGC
With B1 the “degradation of diCPT-PLGLAG-iRGD by MMP-2 (HPLC, 200 uM conjugate, 2 ug/ml MMP-2, 37 C)” value (diCPT-PLGLAG-iRGD) was 54% cleaved after 8 hours.

From US20230218771A1, “SELF-ASSEMBLING PRODRUGS AS IMMUNE BOOSTERS FOR CANCER IMMUNOTHERAPY” (priority 2020, published 2023)
